Source: the nanobody polyreactivity screen of Harvey et al. (2022)

Experiment: yeast display, Sf9 membrane polyspecificity reagent, FACS + sequencing; frameworks hold sequencing errors
How it was run: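 Genes from sorted yeast were amplified by colony PCR, read by MiSeq 2 × 250 sequencing and filtered on CDR length. These cells carried a synthetic nanobody library in Saccharomyces cerevisiae BJ5465 and were sorted by FACS into low and high (top ~1%) gates on anti-HA and streptavidin fluorescence. Polyreactivity is labelled according to the gate of origin.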

Sequence | polyreactivity (PSR sort gate)
QVQLVESGGGLVQAGGSLRLSCAASGITFSYNDMGWYRPAPGKEREFVATIRGSTARTYNADSVKGRFTISRDNAKNTVYLQMNSLKPEDTAVYYGAAGKYWYGYDYWGQGTQVTVSS | high polyreactivity
QVQLVESGGGLVQAGGSLRLSCAASGITFSYYAMGWYRQAPGKERELVAAINSGGGSTYYADSVKGRFTISRDNAKNTVYLQMNSLKPEDTAVYYCAARYRSRYDYYYDRDYWGQGTQVTVSS | low polyreactivity
QVQLVESGGGLVQAGGSLRLSCAASGITFSYYAMGWYRQAPGKERELVAVISRRGGTTYYADSVKGRFTISRDNAKNTVYLQMNSLKPEDTAVYYCAATYISVLGYEYWGQGTQVTVSS | high polyreactivity
QVQLVESGGGLVQAGGSLRLSCAASGITFTFNAKGWYRQAPGKERELVAAISSTTSTIYADSVKRRFTISRDNAKNTVYLQMNRLKPEDTAVYYCAAVEFELLGDYWRQGTQVTVSS | low polyreactivity
QVQLVESGGGLVQAGGSLRLSCAASGITFTFNAMGWYRQAPGKDRELVAAMTWSGGSTFYADSVKGRFTISRDNAKNTVYLQMNSLKPEDSAVYYCARDTELYVRWLDYWGQGTQVTVSS | low polyreactivity
QVQLVESGGGLVQAGGSLRLSCAASGITFTGYAMVWYRQAPGKERELVAAIRGGGNTYYADSVKGRFTISRDNAKNTVYLQMNSLKPEDTAVYYCAADDIAHQYFVSTVDVGMDYWGQGTQVTVSS | low polyreactivity
QVQLVESGGGLVQAGGSLRLSCAASGITFTQYTMGWYRQARGKQRELVAAISSSGGRTYYADSVKGRYTISRDNAKKTVYLQMNSLKPEDTAVYYCAAAWRRTFDYCGQGTQVTVSS | high polyreactivity
QVQLVESGGGLVQAGGSLRLSCAASGITFTRNAMGWYRQAPGKERELVATISGSGGGTYYADSVKGRFTISRDNAKNTVYLQMNSLKPEDTAVYYCNARRWYYWQGTARYDYWGQGTQVTVSS | low polyreactivity
QVQLVESGGGLVQAGGSLRLSCAASGITFTSYAMGWYRQAPGKERELVAAISSSGGSTYYADSVKGRFTISRDNAKNTVYLQMNSLKPEDPAVYYCNARPRSRSPRVEYDYWGQGTQVTVSS | high polyreactivity
QVQLVESGGGLVQAGGSLRLSCAASGITFVHYAMGWYRQAPGKERELVAAISSGGGSTYYADSVKGRFTISRDNAKNTVYLQMNSLKPGVTAVYYCAAYVLPYGEYDYWGQGTQVTVSS | low polyreactivity
QVQLVESGGGLVQAGGSLRLSCAASGITFVLNALGWYRQAPRKERELVARISWSTGSTYYADSVKGRFTISRDNAKNTVYLQMNSLKPEDTAVYYCAVDYNVQSLYVVVEGEYWGQGTQVTVSS | low polyreactivity
QVQLVESGGGLVQAGGSLRLSCAASGITFVLYAMGWYRQAPGKERELVAAITWRGGSTYYADSVKGRFTISRDNAKNTVYLQMNSLKPEDTAVYYCAAVQFTSYRQGDYWGQGTQVTVSS | low polyreactivity
QVQLVESGGGLVQAGGSLRLSCAASGITFVNYAMGWYIQAPGKERELVAAISQSGAITFYADSVKGRFTISRDYAKNNVYLQMNSLKPEDTEVYYCAARRRRGDRSAYDYWGQGTQVTVSS | high polyreactivity
QVQLVESGGGLVQAGGSLRLSCAASGITFVPNAMGWYRQAPGKERELVARIDNGVSTNYADSVKGRFTISRDNAKNTVYLQMNSLKPEDTAVYYCAKDGYWGDWDQYYWGQGTQVTVSS | low polyreactivity
QVQLVESGGGLVQAGGSLRLSCAASGITFVPYAMGWYRQAPGKERELVAAISSSGGSTYYADSVKGRFTISRDNAKNTVYLQMNSLKPEDTAVYYCNVRTHSYIGMDYWGQGTQVTVSS | low polyreactivity
QVQLVESGGGLVQAGGSLRLSCAASGITFVRNAKGWYRPAPGTERELVAAISSGGSTYYADSVKGRFTISRDNAKNTVYLQMNSLKPEDTAVYYCAVLSSWRFSGYDYWGQGTQVTVSS | low polyreactivity
